# Laboratory results as given in US20080226630A1.
# B1: antibody 818 (clone 818) (antibody, human IgG1, kappa, V domains shown)
# VH: QVTLRESGPAVVKPTETLTLTCAFSGFSLNAGRVGVSWIRQPPGQAPEWLARIDWDDDKAFRTSLKTRLSISKDSSKNQVVLTLSNMDPADTATYYCARTQVFASGGYYLYYLDHWGQGTLVTVSS
# VL: DIQMTQSPSSLSASVGDRVTITCRASQTIASYVNWYQQKPGRAPSLLIYAASNLQSGVPPRFSGSGSGTDFTLTISGLQPDDFATYYCQQSYSYRALTFGGGTKVEIKR
# B2: antibody 894 (clone 894) (antibody, human IgG1, kappa, V domains shown)
# VH: QVQLVESGGGVVQPGKSLRLSCAASGFRFSDYGMHWVRQAPSKGLEWVAVIWHDGSNIRYADSVRGRFSISRDNSKNTLYLQMNSMRADDTAFYYCARVPFQIWSGLYFDHWGQGTLVTVSS
# VL: EIVMTQSPATLSVSPGERATLSCRASQSVGNNLAWYQQRPGQAPRLLIYGASTRATGIPARFSGSGSGTEFTLTISSLQSEDFAVYYCQQYDKWPETFGQGTKVDIKR
# B3: antibody 827 (clone 827) (antibody, human IgG1, kappa, V domains shown)
# VH: QVQLVQSGAEVKKPGASVKVSCRVSGHTFTALSKHWMRQGPGGGLEWMGFFDPEDGDTGYAQKFQGRVTMTEDTATGTAYMELSSLTSDDTAVYYCATVAAAGNFDNWGQGTLVTVSS
# VL: DIQMTQSPSSLAASVGDRVTITCRASQFISSYLHWYQQRPGKAPKLLMYAASTLQSGVPSRFSGSGSGTDFTLTISSLQPEDFATYYCQQSYTNPYTFGQGTKLEIKR
# B4: antibody 880 (clone 880) (antibody, human IgG1, kappa, V domains shown)
# VH: QITLKESGPTLVRPTQTLTLTCTFSGFSLSTSKLGVGWIRQPPGKALEWLALVDWDDDRRYRPSLKSRLTVTKDTSKNQVVLTMTNMDPVDTATYYCAHSAYYTSSGYYLQYFHHWGPGTLVTVSS
# VL: DIQMTQSPSSLAASVGDRVTITCRASQTIASYVNWYQQKPGKAPNLLIYAASSLQSGVPSRFSGSGSGTDFTLTISSLQPEDFASYFCQQSYSFPYTFGQGTKLDIKR
# B5: antibody 831 (clone 831) (antibody, human IgG1, kappa, V domains shown)
# VH: QVQLVQSGAEVKKPGASVKVSCKASANIFTYAMHWVRQAPGQRLEWMGWINVGNGQTKYSQRFQGRVTITRDTSATTAYMELSTLRSEDTAVYYCARRASQYGEVYGNYFDYWGQGTLVTVSS
# VL: DIQMTQSPSTLSASVGDRLTITCRASQNIYNWLAWYQQKPGKAPKLLIYDASTLESGVPSRFSGSGSGTEFTLTISSLQPDDFATYYCQQYNSLSPTFGQGTKVEIKR
# B6: antibody 800 (clone 800) (antibody, human IgG1, kappa, V domains shown)
# VH: QVQLVESGGAVVQPGRSLRLSCEVSGFSFSDYGMNWVRQGPGKGLEWVAVIWHDGSNKNYLDSVKGRFTVSRDNSKNTLFLQMNSLRAEDTAVYYCARTPYEFWSGYYFDFWGQGTLVTVSS
# VL: AIQLTQSPSSLSASVGDRVTLTCRASQGITDSLAWYQQKPGKAPKVLLYAASRLESGVPSRFSGRGSGTDFTLTISSLQPEDFATYYCQQYSKSPATFGPGTKVEIRR
# Substrate: F protein of RSV strain 18537 (human respiratory syncytial virus strain 18537 (subtype B)) (UniProt P13843)
# Sequence (P13843 26-574): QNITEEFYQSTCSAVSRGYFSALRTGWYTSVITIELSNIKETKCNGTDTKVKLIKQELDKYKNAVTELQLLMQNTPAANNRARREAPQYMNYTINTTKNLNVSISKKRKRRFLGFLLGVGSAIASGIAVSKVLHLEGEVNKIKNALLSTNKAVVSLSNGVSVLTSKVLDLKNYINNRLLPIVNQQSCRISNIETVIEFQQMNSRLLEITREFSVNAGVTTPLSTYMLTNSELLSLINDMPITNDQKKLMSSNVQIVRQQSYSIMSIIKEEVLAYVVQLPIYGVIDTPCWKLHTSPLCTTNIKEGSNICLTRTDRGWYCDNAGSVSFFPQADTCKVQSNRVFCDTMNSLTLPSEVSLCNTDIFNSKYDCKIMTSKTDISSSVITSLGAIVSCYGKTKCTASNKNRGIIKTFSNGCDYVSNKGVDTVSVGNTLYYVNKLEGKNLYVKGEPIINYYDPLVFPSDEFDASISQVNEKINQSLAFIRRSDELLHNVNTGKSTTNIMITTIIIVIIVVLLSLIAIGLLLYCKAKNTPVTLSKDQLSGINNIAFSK
# Test: cell-based or functional assay
row,Binder,"EC50, PRNT with complement, RSV 18537"
1,B1,0.21 µg/mL
2,B2,0.07 µg/mL
3,B3,0.1 µg/mL
4,B4,0.95 µg/mL
5,B5,0.72 µg/mL

# Substrate: F protein of RSV strain Long (human respiratory syncytial virus strain Long (subtype A)) (UniProt P12568)
# Sequence (P12568 26-574): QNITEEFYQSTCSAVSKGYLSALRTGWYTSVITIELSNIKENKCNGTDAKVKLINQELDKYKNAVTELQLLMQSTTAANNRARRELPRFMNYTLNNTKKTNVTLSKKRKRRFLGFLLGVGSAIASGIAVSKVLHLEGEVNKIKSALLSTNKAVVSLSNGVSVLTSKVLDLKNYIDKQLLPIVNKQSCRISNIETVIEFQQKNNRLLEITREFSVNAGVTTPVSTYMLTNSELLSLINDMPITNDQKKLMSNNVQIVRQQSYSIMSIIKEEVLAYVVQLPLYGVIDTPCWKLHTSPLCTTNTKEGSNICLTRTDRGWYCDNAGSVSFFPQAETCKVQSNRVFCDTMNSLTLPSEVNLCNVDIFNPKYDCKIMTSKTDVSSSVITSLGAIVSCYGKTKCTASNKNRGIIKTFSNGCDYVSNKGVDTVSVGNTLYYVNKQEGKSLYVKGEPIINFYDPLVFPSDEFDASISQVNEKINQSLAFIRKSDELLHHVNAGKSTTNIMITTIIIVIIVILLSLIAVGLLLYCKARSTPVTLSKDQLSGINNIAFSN
# Test: cell-based or functional assay
Binder,"EC50, PRNT with complement, RSV Long","EC50, PRNT with complement, RSV Long (new determination)"
B6,0.15 µg/mL,–
B1,1.86 µg/mL,0.15 µg/mL
B2,0.08 µg/mL,–
B3,0.16 µg/mL,–
B4,0.38 µg/mL,–
B5,0.08 µg/mL,–

# Substrate: F protein of RSV strain B1 (human respiratory syncytial virus strain B1 (subtype B)) (UniProt O36634)
# Sequence (O36634 26-574): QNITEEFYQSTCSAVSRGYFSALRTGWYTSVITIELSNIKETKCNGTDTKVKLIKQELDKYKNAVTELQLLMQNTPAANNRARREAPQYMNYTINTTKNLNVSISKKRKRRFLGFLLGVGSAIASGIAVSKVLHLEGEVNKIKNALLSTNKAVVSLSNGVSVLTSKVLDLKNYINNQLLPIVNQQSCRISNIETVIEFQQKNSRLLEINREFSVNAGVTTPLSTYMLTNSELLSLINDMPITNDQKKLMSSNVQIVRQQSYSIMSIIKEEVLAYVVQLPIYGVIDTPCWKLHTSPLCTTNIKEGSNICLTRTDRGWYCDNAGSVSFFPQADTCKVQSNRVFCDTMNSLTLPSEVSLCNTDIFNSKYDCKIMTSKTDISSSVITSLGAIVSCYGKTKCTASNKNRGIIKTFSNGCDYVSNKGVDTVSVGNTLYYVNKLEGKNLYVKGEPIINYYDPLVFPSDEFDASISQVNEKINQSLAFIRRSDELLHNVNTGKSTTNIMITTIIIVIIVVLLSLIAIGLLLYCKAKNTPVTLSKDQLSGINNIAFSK
# Test: cell-based or functional assay
row,Binder,"EC50, PRNT with complement, RSV B1"
1,B6,0.16 µg/mL
2,B4,0.4 µg/mL
3,B5,1.66 µg/mL
